Laboratory results as given in US20240376189A1 (University of Pennsylvania, published 2024).

T1: human C5a (human, UniProt P01031 678-751, biotinylated in the U937/C5aR ligand blocking assay (site not stated))
T1 construct: also called human antigen; huC5a
T1 sequence: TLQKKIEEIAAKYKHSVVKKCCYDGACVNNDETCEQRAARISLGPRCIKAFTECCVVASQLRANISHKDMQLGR

B1: E54H (humanized anti-C5a IgG4 antibody) (antibody, V domains shown)
VH: QVQLVQSGAEVKKPGSSVKVSCKASGYTHTDHIIHWMRQAPGQGLEWMGYIYPRHGWTNYNENFKGRVTITADKSTSTAYMELSSLRSEDTAVYYCARERNLEYFDYWGQGTTVTVSS
VL: DIVLTQSPASLAVSPGQRATITCKASQSVDYEGFNYMNWYQQKPGQPPKLLIYAASNLDSGVPARFSGSGSGTDFTLTINPVEAEDTANYYCQQSNEDPHTFGGGTKVEIKR
notes: Carries F29H and E54H in VH and Y96H in VL (Kabat) relative to 16D10
B2: 16D10 (humanized anti-C5a IgG4 antibody) (antibody, V domains shown)
VH: QVQLVQSGAEVKKPGSSVKVSCKASGYTFTDHIIHWMRQAPGQGLEWMGYIYPREGWTNYNENFKGRVTITADKSTSTAYMELSSLRSEDTAVYYCARERNLEYFDYWGQGTTVTVSS
VL: DIVLTQSPASLAVSPGQRATITCKASQSVDYEGFNYMNWYQQKPGQPPKLLIYAASNLDSGVPARFSGSGSGTDFTLTINPVEAEDTANYYCQQSNEDPYTFGGGTKVEIKR
notes: also called WT (16D10); WT
B3: N92H (humanized anti-C5a IgG4 antibody) (antibody, V domains shown)
VH: QVQLVQSGAEVKKPGSSVKVSCKASGYTHTDHIIHWMRQAPGQGLEWMGYIYPREGWTNYNENFKGRVTITADKSTSTAYMELSSLRSEDTAVYYCARERNLEYFDYWGQGTTVTVSS
VL: DIVLTQSPASLAVSPGQRATITCKASQSVDYEGFNYMNWYQQKPGQPPKLLIYAASNLDSGVPARFSGSGSGTDFTLTINPVEAEDTANYYCQQSHEDPHTFGGGTKVEIKR
notes: Carries F29H in VH and N92H and Y96H in VL (Kabat); also called N92H antibody
B4: NM2 (scFv, V domains shown)
VH: QVQLVQSGAEVKKPGSSVKVSCKASGYTFTDHIIHWMRQAPGQGLEWMGYIYPREGNTNYNENFKGRVTITADKSTSTAYMELSSLRSEDTAVYYCARERNLEYFDYWGQGTTVTVSS
VL: DIVLTQSPASLAVSPGQRATITCKASQSVDYEGDNYMNWYQQKPGQPPKLLIYAASNLDSGVPARFSGSGSGTDFTLTINPVEAEDTANYYCQQSNEDPHTFGGGTKVEIK
notes: scFv expressed in E. coli BL21 (periplasmic extract)
B5: N97H (humanized anti-C5a IgG4 antibody) (antibody, V domains shown)
VH: QVQLVQSGAEVKKPGSSVKVSCKASGYTHTDHIIHWMRQAPGQGLEWMGYIYPREGWTNYNENFKGRVTITADKSTSTAYMELSSLRSEDTAVYYCARERHLEYFDYWGQGTTVTVSS
VL: DIVLTQSPASLAVSPGQRATITCKASQSVDYEGFNYMNWYQQKPGQPPKLLIYAASNLDSGVPARFSGSGSGTDFTLTINPVEAEDTANYYCQQSNEDPHTFGGGTKVEIKR
notes: Carries F29H and N97H in VH and Y96H in VL (Kabat)

How the values were obtained:
human C5 [1] = target: T2, human C5 (human, UniProt P01031 19-673; P01031 678-1676, limits assumed); test: ELISA, antibody titrated on C5-coated plate
T2 construct: In the sheep RBC lysis assay, C5 is the C5 of normal human serum; also called huC5
Text: The anti-C5a constructs were further tested for their affinities to human C5 using ELISA. Off-target C5 binding reduces availability of anti-C5a antibodies (C5-mediated “sink effect”). […] Each data point was the mean of 2 replicates.

human C5a [2] = target: T1, human C5a; test: ligand blocking, flow cytometry: antibody titrated against 20 nM biotinylated human C5a binding to U937/C5aR cells, Experiment #1
Description: (§1) U937/C5aR cells were washed twice by PBS and suspended in assay buffer (PBS+0.1% BSA) at the density of 3×10⁶ cells/ml. […] 1000 rpm centrifuge for 3-5 min at 4° C., remove supernatant and cells were washed by pre-cold PBS twice. Add 100 μl FITC conjugated streptavidin (eBioscience) to cells and incubate on ice for another 30 min. Centrifuge at 4° C., remove supernatant and cells were washed by pre-cold PBS twice. Add 150 μl 0.5% PFA to suspend cells and detect the signal by FACS (Beckman, Cytoflex). IC₅₀ value was calculated by GraphPad Prism software.
(§2) Mean fluorescence intensities were measured at each antibody concentration. U937 cells without addition of antibodies was used as the low control.

human C5a [3] = target: T1, human C5a; test: ELISA, antibody titrated on C5a-coated plate
human C5 [4] = target: T2, human C5; test: BLI (Gator), percentage dissociation from human C5 at pH 5.8 over pH 7.4
Description: (§3) pH dependency of the humanized anti-C5a constructs were tested using C5 binding assays. A Biolayer interferometry instrument, Gator™ (Probe life Inc., USA) was used to determine pH dependent dissociation of histidine mutants and the benchmark antibodies. Briefly, anti-human IgG Fc (FHC) Probes were equilibrated in the kinetic (K) buffer of Phosphate-buffered saline containing 0.02% bovine serum albumin and 0.002% Tween20 pH 7.4. Antibodies were captured onto the sensors by dipping them into 200 μL of transfection supernatant for 600 s at pH 7.4. The biosensors were then incubated with human C5 prepared in the K buffer pH 7.4 (40 nM) for 600s followed by 600-second dissociation period in K Buffer, pH 7.4 or pH 5.8. The data were processed and analyzed by the Gator evaluation software.

human C5a [5] = target: T1, human C5a; test: cell-based or functional assay
human C5 [6] = target: T2, human C5; test: ELISA, affinity for human C5 against affinity for human C5a
human C5 [7] = target: T2, human C5; test: BLI (Gator), antibody on anti-human IgG Fc probes, 40 nM human C5 bound 600 s at pH 7.4, 600 s dissociation at pH 5.8
Description: as §3

human C5a [8] = target: T1, human C5a; test: cell-based or functional assay; remark: listed apart in the source
human C5a [9] = target: T1, human C5a; test: ligand blocking, flow cytometry: antibody titrated against 20 nM biotinylated human C5a binding to U937/C5aR cells, Experiment #2
Description: as §1, §2

human C5 [10] = target: T2, human C5; test: BLI (Gator), antibody on anti-human IgG Fc probes, 40 nM human C5 bound 600 s at pH 7.4, 600 s dissociation at pH 7.4
Description: as §3

human C5a [11] = target: T1, human C5a; test: SPR, scFv captured via anti-c-myc/anti-His, 5 nM human antigen as analyte, 1:1 fit
cynomolgus antigen [12] = target: T3, cynomolgus antigen (cynomolgus); test: SPR, scFv captured via anti-c-myc/anti-His, 60 nM cynomolgus antigen as analyte, 1:1 fit
T3 construct: also called cyno antigen; cynomolgus monkey C5a
Description: The activator was prepared by mixing 400 mM EDC (1-ethyl-3-(3-dimethylaminopropyl) carbodiimide) and 100 mM NHS (N-hydroxysuccinimide) (GE) immediately prior to injection. The CMS sensor chip was activated for 600 s with the mixture at a flow rate of 10 μL/min. Mixture of anti-c-myc and anti his antibodies in 10 mM NaAc (pH 4.5) was then injected to Fc1 and Fc2 of channel 1 to channel 8 for 600 seconds at a flow rate of 10 μL/min. The chip was deactivated by 1 M ethanolamine-HCl (GE) at a flow rate of 10 μL/min for 420 seconds.
The anti-C5a scFv was diluted to 0.5 μg/ml, the other samples were diluted to 2 μg/ml in running buffer 1×HBS-EP+ (0.01 M HEPES, 0.15 M NaCl, 0.003 M EDTA, 0.05% surfactant P20). […] Diluted TES buffer was injected into channel Fc1 at a flow rate of 10 μL/min for 40 s, diluted scFv was injected into channel Fc2 at a flow rate of 10 μL/min for 40 s. […] 10 mM glycine pH 1.5 as regeneration buffer was injected following every dissociation phase. The chip was regenerated with 10 mM glycine pH 1.5.
The sensorgrams for reference channel Fc1 and buffer channel were subtracted from the test sensorgrams. Data were fitted by 1:1 kinetic binding model. Molecular weight of 8.4 kDa was used to calculate the molar concentration of the cyno antigen.

cynomolgus antigen [13] = target: T3, cynomolgus antigen; test: SPR, scFv captured, cynomolgus antigen as analyte

Binder | affinity determined by ELISA, huC5 (human C5 [1]) | IC50 (human C5a [2]) | affinity determined by ELISA, huC5a (human C5a [3]) | Ratio between dissociation at pH 5.8 and 7.4 (human C5 [4]) | Inhibition of cell migration IC50 (nM), U937-C5aR cells (human C5a [5]) | Fold affinity (C5/C5a) (human C5 [6]) | Dissociation pH 5.8 (%) (human C5 [7]) | Inhibition of calcium influx IC50 (nM), FLIPR, Experiment #1 (human C5a [8]) | Inhibition of calcium influx IC50 (nM), FLIPR, Experiment #2 (human C5a [8]) | IC50 (human C5a [9]) | Dissociation pH 7.4 (%) (human C5 [10]) | koff (human C5a [11]) | koff (cynomolgus antigen [12]) | Kd (cynomolgus antigen [13]) | koff (cynomolgus antigen [13]) | kon (cynomolgus antigen [13])
B1 | 0.0601 nM | 2.57 nM | 0.336 nM | 11.3 | 0.076 nM | 5.6 fold | 60.8% | 0.136 nM | 0.154 nM | 6.53 nM | 5.39% |  |  |  |  | 
B2 | 0.0288 nM | 2.03 nM | 0.269 nM | -2.09 | 0.061 nM | 9.3 fold | -2.42% | 0.106 nM | 0.135 nM | 5.9 nM | 1.16% |  |  |  |  | 
B3 | 0.12 nM | 3.68 nM | 0.468 nM | 6.54 | 0.099 nM | 3.9 fold | 54.2% | 0.078 nM | 0.145 nM | 6.23 nM | 8.29% |  |  |  |  | 
B4 |  |  |  |  |  |  |  |  |  |  |  | 0.000736 s⁻¹ | 0.0783 s⁻¹ | 190 nM | 0.133 s⁻¹ | 702000 M⁻¹ s⁻¹
B5 | 0.0682 nM | 4.71 nM | 0.408 nM | 10.9 | 0.07 nM | 6 fold | 49% | 0.072 nM | 0.138 nM | 5.96 nM | 4.49% |  |  |  |  | 
